These are literature values, as cited in article PMC9363672.

This data set has as its target syndecan 3 (Homo sapiens) (UniProt O75056).
Chain of UniProt O75056 (O75056 whole entry): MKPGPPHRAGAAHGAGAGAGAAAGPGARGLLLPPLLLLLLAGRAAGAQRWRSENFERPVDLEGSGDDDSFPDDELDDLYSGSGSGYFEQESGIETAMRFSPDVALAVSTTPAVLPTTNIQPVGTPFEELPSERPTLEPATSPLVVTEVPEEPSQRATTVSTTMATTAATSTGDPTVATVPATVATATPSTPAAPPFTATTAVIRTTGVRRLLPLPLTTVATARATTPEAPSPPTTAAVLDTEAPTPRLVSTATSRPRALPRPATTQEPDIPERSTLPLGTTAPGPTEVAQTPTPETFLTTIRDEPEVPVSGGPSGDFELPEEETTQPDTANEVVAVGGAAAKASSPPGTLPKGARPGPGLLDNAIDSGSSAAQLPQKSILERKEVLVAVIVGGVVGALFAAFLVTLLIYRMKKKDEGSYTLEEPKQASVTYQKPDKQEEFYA

What is called Kd is the equilibrium constant for the complex coming apart. Regarding pleiotrophin (from UniProt P21246), the Kd is 6 nM.
